Measured values published in the supplement of paper PMC9170038.

Assays:
[1] = tested on: MS2 coat protein; assay: apparent KD of MS2 coat protein, switch ON state; designed switch direction (-1 OFF switch, 1 ON switch): -1; higher = weaker reporter binding; conditions: FMN input: 0 or 200 uM; Eterna round: R93 (includes R88 designs)
Method in brief: (§1)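 With or without constant ligand, designed RNA switches in 100 mM Tris-HCl pH 7.5, 80 mM KCl and 4 mM MgCl2 were titrated with SNAP-549-labelled MS2 coat protein. Concentrations went up in twofold steps from 0.7 or 1.5 nM to 3 µM. The switches had been transcribed on-chip from Illumina sequencing clusters, and apparent KD is the per-design median of normalised cluster binding-curve fits.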

[2] = tested on: MS2 coat protein; assay: apparent KD of MS2 coat protein, switch OFF state (with FMN for OFF switches, without FMN for ON switches); designed switch direction (-1 OFF switch, 1 ON switch): -1; higher = weaker reporter binding; conditions: FMN input: 0 or 200 uM; Eterna round: R93 (includes R88 designs)
Method in brief: as §1

Sequence | apparent KD of MS2 coat protein [1] [µM] | apparent KD of MS2 coat protein [2] [µM]
AAACCACAUGAGGAUCACCCAUGUCAGGAUAUGAACGAAAAUAAAUAAAAAUAAAAGUUCAGAAGGGACAAAAA [66%, Wbt, 13] | 0.0423 | 0.0772
AAAGAUACAGGAUAUACAUGAGGAUCACCCAUGUGAGACCAAAAAUGGGAAAAAGAAAGUAGAAGGGUAUAAAA [Ex 3 May 36] | 0.0399 | 0.0917
AAAGAUGCAGGAUAUACAUGAGGAUCACCCAUGUUAGACCAAAAAUGGGAAAAAGAAAGUAGAAGGGCAUAAAA [Ex 3 May 34] | 0.0432 | 0.203
AAAGAUGCAGGAUAUACAUGAGGAUCACCCAUGUUAGACCUGAAAAAGGGAAAAGAAAGUAGAAGGGCAUAAUA [Ex 3 May 31] | 0.0128 | 0.0115
AAAGGACGAGGAUAUACAUGAGGAUCACCCAUGUAAAAAACAUAGUAAAAGUGCUUGUGUAGAAGGCGUCCAAA [Meechl Ex3 2 R2 v9] | 0.0781 | 0.195
AAAGGGUCAGGAUAUCGUUUAAUAAUAAAAUAAAUAAAGAACGAGAAGGGACAUGAGGAUCACCCAUGUAUAAA [May 76] | 0.0653 | 0.0898
AAAGUACGAGGAUAUACAUAGAUACAGAUACAUGUAGACGUACAUGAGGAUCACCCAUGUAGAAGGCGUACAAG [Mat - Same state - Mayanna Mod - D116] | 0.172 | 0.327
AAAUAGCAAGGAUAUACAUGAGGAUCACCCAUGUAAAAAUGGAAAGUAAAAGAAUAAAGUAGAAGGUGCAAAUA [Ex 3 Tesla 2] | 0.0206 | 0.0369
AAAUAGCAAGGAUAUACAUGAGGAUCACCCAUGUAAGGAUGGUAAGUAUUAGAAGAAAGUAGAAGGUGCAAAUA [Ex 3 Tesla 5] | 0.0336 | 0.0553
AAAUAGUUAGGAUAUACAUGAGGAUCACCCAUGUGCACUUAUGGAGAAUAGGGUAAUGGUAGAAGGGACUAAAA [EX2 Malc#21] | 0.0362 | 0.0397
AAAUUGUCAGGAUAUCCUAUAACUCUAAAAUAGAGGAGAUAGGAGAAGGGACAUGAGGAUCACCCAUGUAAAAC [May 86] | 0.0437 | 0.0617
AAAUUGUCAGGAUAUCCUAUAAUAAUAAAAUAGAGGAAAUAGGAGAAGGGACAUGAGGAUCACCCAUGUAAAAC [May 84] | 0.0492 | 0.037
AAAUUGUCAGGAUAUCGUAGAACAGGGAAAACCUGGAGCUACGAGAAGGGACAUGAGGAUCACCCAUGUAAAAC [May 93] | 0.0627 | 0.0711
AAAUUGUCAGGAUAUCUUAGAACUCUAAAAUAGAGGAGCUAAGAGAAGGGACAUGAGGAUCACCCAUGUAAAAC [May 89] | 0.0865 | 0.071
AACAAGACAGGAUAUACAUGAGGAUCACCCAUGUGAGAAUAAAGUGGCGUAACACAAAGUAGAAGGGUCAUGGA [Ruby 6] | 0.0326 | 0.0555
AACAAGUCAGGAUAUCAUACUAAUCACUUGCUUUAAAUGUAUGAGAAGGGACAUGAGGAUCACCCAUGUAAAGA [Exclusion4-cac3] | 0.0468 | 0.0341
AACAAGUGAGGAUAUUGGAAAAGUAAAUAAGUAAAACAAAACAAGAAGGCACAUGAGGAUCACCCAUGUAAAUA [JR_Exc004_Sub017] | 0.0219 | 0.0179
AACACACAUGAGGAUCACCCAUGUCAGGAUAUGCCGGGUUAGAGCCAACUGAAAAACCGUAGAAGGGACGAAAA [Bilbo Confounded 9 - Jieux - Exclusion 1] | 0.0669 | 0.0616
AACAGACAUGAGGAUCACCCAUGUGAGGAUAUGGCAAUCGAUAGAACUAGAAUGACAACCAGAAGGCACAGCAA [JR_Exc001_Sub004] | 0.0776 | 0.0863
AACAGGACAGGAUAUACAUGAGGAUCACCCAUGUAGGAAUUAAGCAGAGUACCACACAGUAGAAGGGUCAUGGA [Ruby 26] | 0.0276 | 0.0304

Sequence | apparent KD of MS2 coat protein [1] [µM] | apparent KD of MS2 coat protein [2] [µM]
AACAGGACAGGAUAUACAUGAGGAUCACCCAUGUCACAACAAAGCAGCGCAACACAAAGUAGAAGGGUCAUGGA [Ruby 13] | 0.0758 | 0.0591
AACAGGUCAGGAUAUGUGGAAAAAAUAAAAAAAAUAAAAACACAGAAGGGACAUGAGGAUCACCCAUGUAAACA [May 23] | 0.0472 | 0.0604
AACAGGUUAGGAUAUAUCCAACAAAUAAAAAAAAUAUAAGGAUAGAAGGAACAUGAGGAUCACCCAUGUUAACA [May 30] | 0.0208 | 0.0171
AACAGUACAGGAUAUACAUGAGGAUCACCCAUGUAAAAAGGGAGUGGCGUACCACAAAGUAGAAGGGUACUGGA [Moding Maslow revisited (73) 7] | 0.0369 | 0.172
AACAGUACAGGAUAUACAUGAGGAUCACCCAUGUAAAAAUAAUAAAAGGGAAAAACUCGUAGAAGGGUACUGGA [Moding Maslow revisited (73) 16] | 0.0632 | 0.104
AACAGUACAGGAUAUACAUGAGGAUCACCCAUGUAAAAGGGAAGUGGCGUACCACAAAGUAGAAGGGUACUGGA [Moding Maslow revisited (73) 6] | 0.0376 | 0.121
AACAGUACAGGAUAUACAUGAGGAUCACCCAUGUGAAAAUUAAGUGGAAAACCACAAAGUAGAAGGGUACUGAA [Mat - Exclusion 3 - Eli mod - D58] | 0.0214 | 0.0617
AACAGUACAGGAUAUACAUGAGGAUCACCCAUGUGAAAAUUAAGUGGCGUACCACAAGGUAGAAGGGUACUGGA [Moding Maslow Revisited (73) 27] | 0.0327 | 0.129
AACAGUACAGGAUAUACAUGAGGAUCACCCAUGUGAAAAUUAAGUGGCGUACCACAAUGUAGAAGGGUACUGAA [Mat - Exclusion 3 - Eli mod - D46] | 0.103 | 0.232
AACAGUACAGGAUAUACAUGAGGAUCACCCAUGUGAAAAUUAAGUGGGAAACCACAAUGUAGAAGGGUACUGGA [Mat - Exclusion 3 - Eli mod - D50] | 0.121 | 0.109
AACAGUACAGGAUAUACAUGAGGAUCACCCAUGUGACAAUUAAGUGGCGUACCACAGUGUAGAAGGGUACUGGA [Ruby 84] | 0.0931 | 0.113
AACAGUACAGGAUAUACAUGAGGAUCACCCAUGUGAGAAUUAAGUAGAUUGCCACAAAGUAGAAGGGUACUGGA [Ruby 98] | 0.0593 | 0.0809
AACAGUACAGGAUAUACAUGAGGAUCACCCAUGUGAGACUUAAGUGGCGUACCACAAAGUAGAAGGGUACUGGA [JL Maslow Revisted mod 8] | 0.0841 | 0.386
AACAGUACAGGAUAUACAUGAGGAUCACCCAUGUGGGUGUUAAGUGGCGUACCACAAAGUAGAAGGGUACUGGA [JL In the Red CG] | 0.327 | 0.106
AACAUGUCAGGAUAUGCGAAGGCGUCUGACAGACGAGGCUAGCAGAAGGGACAUGAGGAUCACCCAUGUAAAAA [Mod of Power Strip by EINando888 - changed 3 and 30 to C] | 0.111 | 0.0488
AACAUGUGAGGAUAUGUACGAAAAAAUAAAAAAAUAAAAGUACAGAAGGCACAUGAGGAUCACCCAUGUGAAAA [EX4 395: Minimal 8] | 0.176 | 0.271
AACAUGUGAGGAUAUUUAAGAAAAGAAAAGAAAGAAAAGAAAAAGAAGGCACAUGAGGAUCACCCAUGUAAGAA [EteRNA is fun!] | 0.0241 | 0.026
AACCAACAUGAGGAUCACCCAUGUCAGGAUAUGCAAACAACAAACAACAAACAACAAAGCAGAAGGGACAACAA [63%, Olong, 1] | 0.0152 | 0.0211
AACCUGCUAGGAUAUACAGCAGGGAUUCGAAAACCCACGAAACAUGAGGAUCACCCAUGUAGAAGGAGUAGGGA [Teainis] | 0.0203 | 0.0161
AACGAGUCAGGAUAUACAAAAAAUAAAUAAAUAAAAUAAAAGUAGAAGGGACAUGAGGAUCACCCAUGUAAAUA [JR_Exc004_Sub020] | 0.0593 | 0.044
